Like-named read-outs stand apart in the source and are kept apart here.
B1: FLT3L: recombinant human FLT3L (Celldex Therapeutics or Miltenyi Biotec), stem cell-specific growth factor (protein, UniProt P49771 27-235, looked up)
Fms-related tyrosine kinase 3 …: TQDCSFQHSPISSDFAVKIRELSDYLLQDYPVTVASNLQDEELCGGLWRLVLAQRWMERLKTVAGSKMQGLLERVNTEIHFVTKCAFQPPPSCLRFVQTNISRLLQETSEQLVALKPWITRQNFSRCLELQCQPDSSTLPPPWSPRPLEATAPTAPQPPLLLLLLLPVGLLLLAAAWCLHWQRTRRRTPRPGEQVPPVPSPQDLLLVEH
B2: G-CSF: Granulocyte colony stimulating factor (Amgen), routinely used to mobilize PBSC (protein, UniProt P09919 31-207, looked up)
Granulocyte …: TPLGPASSLPQSFLLKCLEQVRKIQGDGAALQEKLVSECATYKLCHPEELVLLGHSLGIPWAPLSSCPSQALQLAGCLSQLHSGLFLYQGLLQALEGISPELGPTLDTLQLDVADFATTIWQQMEELGMAPALQPTQGAMPAFASAFQRRAGGVLVASHLQSFLEVSYRVLRHLAQP

Tests used:
[1] = test system: HSCs (Lin-Sca-1+c-Kit+, LSK cells); assay: LSK cell mobilization into peripheral blood, flow cytometry (Example 6); assay type: in vivo, C57BL/6 mice
Description: (§1) C57BL/6 mice were injected intraperitoneally (i.p.) either (i) with recombinant human FLT3L (Celldex Therapeutics or Miltenyi Biotec) ([…]) for 10 consecutive days or (ii) with G-CSF (Amgen) ([…]) for 5 consecutive days. The capacity of human FLT3L to bind murine FLT3L receptors and Plerixafor to block murine Cxcr4 receptor was previously reported. (See, e.g., Lyman et al., 1994; Brawel et al., 1996; Gerlach et al., 2001; Broxmeyer et al., 2005). Twelve hours after the last dose of either FLT3L or G-CSF, the mice were injected i.p. with either PBS or Plerixafor (AMD3100, Sigma) (5 mg/kg). The mice were euthanized one hour later.
As described by Ferraro et al., 2011, peripheral blood was collected retro-orbitally while the mice were under deep anesthesia. Briefly, the mice were […] by an i.p. injection with 100 μL of a mixture of ketamine (54.3 mg/mL) and xylazine (9.1 mg/mL). Blood was collected from the retro-orbital venous plexus through a microcapillary heparinized tube. The mice were then euthanized while still deeply anesthetized. RBCs were depleted by RBC lysis buffer. The remaining cells were subjected to flow cytometric analysis or transplantation.
The mAbs reactive with murine cell antigens were purchased from BD Biosciences or eBioscience. Cell preparation and analysis were performed as described by Yu et al., 2010. […]

CD8+ T cells = CD8+ T cells in mobilized peripheral blood, flow cytometry (Example 3); assay type: in vivo, mice (WT B6D2F1/J); conditions: group of three mice
Description: It is known that donor CD8^+ T cells are mainly responsible for GVHD in HSCT, and G-CSF is considered a toxic mobilizer as it also induces GVHD.
In FIG. 3, WT B6D2F1/J mice were treated with FLT3L or G-CSF for 10 or 5 days, respectively, followed by a one-hour Plerixafor treatment. PBS served as a control. Peripheral blood cells were assayed by flow cytometry to examine percentages of CD8^+ T cells ([…]) in total white blood cells. Data were summarized from a group of three mice.

[2] = test system: lethally irradiated syngeneic mouse model; assay: Survival of lethally irradiated syngeneic mice given mobilized peripheral blood cells (Example 5); assay type: in vivo, mice (C57BL/6); conditions: 0.2 million mobilized PB cells per lethally irradiated recipient
Description: Peripheral blood (PB) mobilized by FLT3L and Plerixafor prolongs mouse survival in a lethally irradiated syngeneic mouse model and a fully mismatched acute GVHD model. To test whether the mobilized stem cells and other immune cells can improve transplantation, mobilized cells were administered to lethally irradiated (IR) syngeneic mice at the dose of 0.2 million PB cells for each recipient mouse.

[3] = test system: NK cells, Tregs, DCs, monocytes, neutrophils; assay: Immune cell subsets in mobilized peripheral blood, flow cytometry (Example 6); assay type: in vivo, C57BL/6 mice
Description: as §1
The mAbs reactive with murine cell antigens were purchased from BD Biosciences or eBioscience. Cell preparation and analysis were performed as described by Yu et al., 2010. The immune subsets were gated as CD3^−NK1.1^+ for natural killer (NK) cells, CD3^+CD25^+Foxp3^+ for regulatory T cells (Tregs), B220^−CD11c^+CD11b^− for conventional dendritic cells (cDCs), and CD11b^−CD11c^lowPDCA1^+SiglecH^+ for plasmacytoid DCs (pDCs).
In FIG. 12, the constitution of immune cell subsets in mobilized peripheral blood was determined by flow cytometric analysis with corresponding antibodies (B cell: CD3^−CD19^+, T cell: CD3^+NK1.1^−; NK cell: CD3^−NK1.1^+; Neutrophil: Gr1^highCD11b^+; Monocyte: Gr1^medCD11b^+; DC: CD11c^+). […]

[4] = test system: Lin-c-kit+Sca-1+ HSCs and Lin-c-kit+Sca-1- progenitor cells; assay: Mobilization of HSCs and committed progenitors into peripheral blood, flow cytometry (Example 1); assay type: in vivo, mice (WT B6D2F1/J)
From the text: Since HSCs are important for long-term reconstitution and progenitor cells are critical for short-term rapid reconstitution in transplantation, whether a combination of FLT3L and Plerixafor can mobilize both types of cells was investigated. In mice, Lin^−c-kit^+Sca-1^+ cells are enriched HSCs and Lin^−c-kit^+Sca-1^− cells are more committed progenitor cells. […] Furthermore, the mobilization effect of the FLT3L and Plerixafor combination was much stronger than the G-CSF and Plerixafor combination, the strongest mobilizer currently used clinically (5.9% vs. 2%, 10.3% vs. 1%, n=3, p<0.01, respectively). The flow results were validated by another method, stem cell colony formation assay.
In FIG. 1, WT B6D2F1/J mice were treated with FLT3L or G-CSF for 10 or 5 days, respectively, followed by a one-hour Plerixafor treatment. PBS served as a control. On the last day of the treatment, mice were sacrificed and peripheral blood cells were subjected to flow cytometry to determine percentages (among total WBC) of stem-cell enriched (Lin^−CD117^+Sca-1^+) (FIG. 1A) or more committed precursor cells ([…]) (FIG. 1B).

NK cells (NK1.1+CD3-) = assay: NK cell expansion in peripheral blood and spleen, flow cytometry (Example 2); assay type: in vivo, mice (WT C57BL/6 or B6D2F1/J)
From the text: […] PBS; gated on total white blood cells).
In FIG. […] PBS served as a control. Peripheral blood cells were counted using trypan blue and assayed by flow cytometry to examine percentages of NK cells (NK1.1^+CD3^−).

[5] = test system: lethally irradiated C57BL/6 mice; assay: Syngeneic transplantation of mobilized grafts into lethally irradiated mice (Example 6); assay type: in vivo; conditions: 2×10^5 mobilized cells per recipient
Description: For syngeneic transplantation, C57BL/6 mice were subjected to 9 Gy of irradiation delivered in 2 fractions separated by 4 hours using RS 2000 X-Ray Q2 Irradiator (Rad Source Technologies, Suwanee GP). Four hours later, each mouse was transplanted via the tail vein with 2×10^5 mobilized RBC-depleted peripheral blood cells from C57BL/6 mice. […] The lethally irradiated mice were housed in a sterile environment and baytril antibiotic was provided in the drinking water to prevent infection-caused mortality. After transplantation, mice were monitored daily and the phenotypes of the mice were recorded.
(§2) Irradiated mice without any cell infusion (IR Ctl) served as a control group. A total of 2×10^5 (A) or 8×10^5 (B) peripheral blood cells were transplanted for each recipient. Each group contains 5 to 8 mice. A log-rank test was used to compare survival curves.

[6] = test system: lethally irradiated BALB/c mice; assay: Allogeneic transplantation of mobilized grafts into lethally irradiated mice (Example 6); assay type: in vivo, BALB/c mice (grafts from C57BL/6); conditions: 8×10^5 mobilized cells per recipient
Description: For allogeneic transplantation, each recipient BALB/c mouse was subjected to a lethal irradiation (delivered in 2 fractions separated by 4 hours using RS 2000 X-Ray Q2 Irradiator) and was then injected with 8×10^5 mobilized RBC depleted peripheral blood cells isolated from C57BL/6 mice. […] Considering the likely graft rejection and GVHD complication in the allogeneic model, a 4-fold higher number of cells (i.e., 8×10^5 donor cells isolated from C57BL/6 mice) were administered intravenously (i.v.) into each BALB/c recipient for allogeneic transplants. The lethally irradiated mice were housed in a sterile environment and baytril antibiotic was provided in the drinking water to prevent infection-caused mortality. After transplantation, mice were monitored daily and the phenotypes of the mice were recorded.
as §2
In FIG. 16, lethally irradiated BALB/c mice were transplanted with grafts from C57BL/6 mice that were mobilized by the indicated regimens. At four months post-transplantation, the surviving mice were sacrificed.

[7] = test system: fully mismatched acute GVHD model; assay: Survival in fully mismatched acute GVHD model given mobilized peripheral blood cells (Example 5); assay type: in vivo, mice (C57BL/6 to BALB/c); conditions: 0.8 million mobilized cells per mouse
[8] = test system: peripheral blood stem cells; conditions: cited from earlier work
[9] = test system: mice syngeneically infused; conditions: cited from earlier work

Molecule | number of LSK cells in blood compared with PBS-treated mice [1] | proportion of CD8+ T cells in total white blood cells (CD8+ T cells) | protection from death [2] | NK (CD3-NK1.1+) cell percentages [3] | effect on progenitor cells and HSCs ([4]; FLT3L administration for 5 days) | Lin-c-kit+Sca-1+ HSC, percentage among total WBC ([4]; peripheral blood, FLT3L administration of 7 days and 10 days, printed as 0.13% vs. 1.8%, n=3, p<0.01) | Lin-c-kit+Sca-1- progenitor cells, percentage among total WBC ([4]; peripheral blood, FLT3L administration of 7 days and 10 days, printed as 0.47% vs. 1.8%, n=3, p<0.01) | NK cells in peripheral blood and spleen (NK cells (NK1.1+CD3-); FLT3L alone for 14 days) | NK cell content compared with the combination of GCSF and Plerixafor (NK cells (NK1.1+CD3-); gated on total white blood cells) | mice alive four months after transplantation [5] | survival rate at day 21 [5] | mice surviving to 4 months post-transplantation [6] | survival rate two months (day 60) after transplantation [7] | autologous transplant patients that respond poorly ([8]; G-CSF or G-CSF plus chemotherapy, varied depending on disease types and age) | normal donors that mobilize stem cells poorly ([8]; in response to G-CSF) | mice survived ([9]; 2.5×10^5 cells mobilized by G-CSF transplanted) | mice survived ([9]; syngeneically infused with 1×10^6 peripheral nucleated cells mobilized by G-CSF)
c1cc(CN2CCCNCCNCCCNCC2)ccc1CN1CCCNCCNCCCNCC1 [Plerixafor, reference compound] | moderate increase | moderately gave rise to a proportional increase | – | – | – | – | – | – | – | – | – | – | – | – | – | – | –
B1 | significantly more LSK cells | dramatically decreased | fully protect mice from death | significantly increased | increased only Lin-c-kit+Sca-1-progenitor cells but not HSCs | 1.8% | 1.8% | dramatically increased | much higher NK cell content | approximately 70% | 100% | 66% | 60% | – | – | – | –
B2 | – | – | – | – | – | – | – | – | – | – | – | – | – | 10-30% | 5-10% | around 17% | about 90%
